Laboratory results from patent publication US20080306243A1 (NEC, published 2008).

B1: SEQ ID NO 3 (peptide)
peptide: ILLGRHSLF
notes: Synthetic 9-mer peptide of PSA (GenBank M26663)
B2: SEQ ID NO 5 (peptide)
peptide: QVFQVSHSF
notes: as for B1
B3: SEQ ID NO 6 (peptide)
peptide: ILSRIVGGW
notes: as for B1
B4: SEQ ID NO 7 (peptide)
peptide: VHPQKVTKF
notes: as for B1
B5: SEQ ID NO 8 (peptide)
peptide: GVLQGITSW
notes: as for B1
B6: SEQ ID NO 9 (peptide)
peptide: VLVHPQWVL
notes: as for B1

Molecular target: T1, HLA-A2402 molecule, which is a product of the HLA-A*2402 gene (human)
T1 construct: MHC class I molecule on C1R-A24 cells, emptied by acid and reassociated with added β2m and the test peptide; also called HLA-A24 molecule; human HLA-A2402 molecule
Experiment: flow cytometry; reassociation of peptide, added β2m and HLA-A2402 on acid-stripped C1R-A24 cells, stained with mAb 17A12
Description: After neutralization, purified β2m was added to C1R-A24 cells, the obtained product was added to serial dilutions of a peptide, and incubated on ice for 4 hours.
Subsequently, the MHC-pep count per C1R-A24 cell (proportional to the strength of fluorescence of the above-mentioned fluorescent antibody) was quantitatively measured using an FACScan fluorescence-activated cell sorter (Becton Dickinson Biosciences). A binding dissociation constant Kd value between the HLA-A24 molecule and the peptide was calculated from the average strength of fluorescence per cell by a published method (Udaka et al., Immunogenetics, 51, 816-828, 2000).

Binder | -log Kd
B1 | 7.47 -log Kd
B2 | 7.32 -log Kd
B3 | 7.21 -log Kd
B4 | 6.65 -log Kd
B5 | 5.38 -log Kd
B6 | 6.34 -log Kd
